Patent US20120165265A1 (published 2012)

Biological target: T1, Flag-myc-CAD (Homo sapiens (Human), UniProt Q13586 342-448)
T1 construct: also called Flag-tagged CAD; not shown: Flag and myc tags from the custom vector pDEST-pGWI-Flag-Myc-x
Test: co-immunoprecipitation from HEK 293T cells
Procedure: Immunoprecipitation and Immunoblot Analysis. […] Lysates were spun at 12,000 rpm for 10 min, and the supernatant was incubated with anti-Flag M2 agarose beads (Sigma), or anti-myc or -HA antibody followed by IgG agarose beads (Pierce). Lysates and immunoprecipitates were subjected to SDS-PAGE, probed with HRP-conjugated secondary antibody and detected by enhanced chemiluminescence (Pierce).
STIM1-CAD BINDS TO THE N- AND C-TERMINI OF ORAI1. To identify regions of Orai1 important for activation by CAD, we characterized the binding of CAD to Orai1 using two approaches. First we expressed fusions of NubG with the N-terminus, the II-III cytoplasmic loop and the C-terminus of Orai1 in yeast together with different CAD-Cub-LV constructs. […] Based on the level of b-gal activity, CAD appears to interact with the Orai1 C-terminus with a higher affinity than with the N-terminus.

T1 sequence (Q13586 342-448): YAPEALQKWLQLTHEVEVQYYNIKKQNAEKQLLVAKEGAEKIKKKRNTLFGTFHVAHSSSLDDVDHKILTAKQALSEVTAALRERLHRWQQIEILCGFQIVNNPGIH

binding result: no binding
B1: Orai1 1-70, expressed in HEK 293T cells (other)
chain: MHPEPAPPPSRSSPELPPSGGSTTSGSRRSRRRSGDGEPPGAPPPPPSAVTYPDWIGQSYSEVMSLNEHS
notes: not shown: The detection tag of the HEK construct (probably N-terminal YFP)
